Experimental findings from patent publication US20130324465A1 (Sanofi, published 2013) are described below.

Values joined by “and” are separate entries in the source; they are usually repeats but may differ in a detail not shown here. Equal values may be shown once. Where only a bound is given, the exact number is not on record here.

Assay [1] has as its target VEGF165 (UniProt P15692). The assay can be described thus: competitive VEGF ELISA; panel B. Background: In an ELISA, binding on a coated surface is turned into a signal by an enzyme label.
Assay [2] deals with VEGF165 (UniProt P15692). The assay can be described thus: VEGF binding assay; after 56 days incubation at 45 C.
The target of assay [3] is VEGF165 (UniProt P15692). As to the kind of experiment: VEGF binding assay.
Assay [4] has as its target VEGF165 (UniProt P15692). The assay can be described thus: competitive VEGF ELISA; panel A.
Assay [5] concerns the target T1, VEGF165 (UniProt P15692 27-191).
T1 chain: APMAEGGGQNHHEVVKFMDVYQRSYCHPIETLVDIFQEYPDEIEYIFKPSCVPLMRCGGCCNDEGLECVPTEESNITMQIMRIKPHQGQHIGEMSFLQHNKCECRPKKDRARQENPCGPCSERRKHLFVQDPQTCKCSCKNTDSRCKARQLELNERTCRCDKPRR
As to the kind of experiment: Biacore; 100RU VEGF.

Assay [6] has as its target T1, VEGF165. As to the kind of experiment: competitive VEGF ELISA; panel A.
Assay [7] addresses T1, VEGF165. As to the kind of experiment: Biacore; 4000RU VEGF.
The target in assay [8] is T1, VEGF165. The assay can be described thus: Biacore; 500RU VEGF.
Assay [9] has as its target T2, VEGF165 (UniProt P15692-4 27-191).
T2 construct: also called recombinant VEGF (R&D Systems); immobilized VEGF
The assay can be described thus: competitive VEGF ELISA. The procedure: Dimer was prepared using 100 uM CuCl₂ and the products assayed for VEGF binding activity by competitive VEGF ELISA. […] This value was similar to that obtained for dimers obtained without copper oxidation (FIG. 5). This molecule lacks the hinge region and Fc domain of sFLT01 and represents a minimal high affinity VEGF binding entity. Its low MW may provide advantages in localized delivery, including higher diffusion through tissue, more rapid systemic clearance thus reducing potential side effects of VEGF antagonism, and greater stability upon formulation into slow-release depots.
Dimers wherein two D2 domains of sFLT are coupled via PEG linkers were prepared by reaction of the partially-reduced monomer with homobifunctional PEGs. Products were isolated by SEC (FIG. 5) and analyzed for VEGF binding affinity using competitive ELISA (FIG. 9). VEGF165 binding of three SEC purified D2 domain constructs including dimers prepared with 0.6, 2 and 5 kDa linkers and as well as the 10 and 20 kDa 4-arm PEG conjugates as described in Example 1 was determined. The assay was performed by binding to 10 pM recombinant VEGF (R&D Systems) in phosphate-buffered saline. The sample concentrations ranged from 0.0763 to 156 pM. Following binding, the free VEGF concentration was determined by a VEGF-specific ELISA (R&D Systems). […]

Assay [10] deals with T2, VEGF165. The assay can be described thus: competitive VEGF ELISA: binding to 10 pM recombinant VEGF, free VEGF measured by ELISA. As for the experimental part: (§1) Dimers wherein two D2 domains of sFLT are coupled via PEG linkers were prepared by reaction of the partially-reduced monomer with homobifunctional PEGs. Products were isolated by SEC (FIG. 5) and analyzed for VEGF binding affinity using competitive ELISA (FIG. 9). VEGF165 binding of three SEC purified D2 domain constructs including dimers prepared with 0.6, 2 and 5 kDa linkers and as well as the 10 and 20 kDa 4-arm PEG conjugates as described in Example 1 was determined. The assay was performed by binding to 10 pM recombinant VEGF (R&D Systems) in phosphate-buffered saline. The sample concentrations ranged from 0.0763 to 156 pM. Following binding, the free VEGF concentration was determined by a VEGF-specific ELISA (R&D Systems). […] D2 monomer purified directly from medium (“D2 HPC4 eluate Pk C”) had no detectable binding to VEGF165.

The target of assay [11] is T2, VEGF165. As to the kind of experiment: Biacore. (In general: In SPR one partner is held on a chip, and binding of the other changes the refractive index at the surface.)
The target of assay [12] is T1, VEGF165. The assay can be described thus: competitive VEGF ELISA.
The target in assay [13] is T1, VEGF165. The assay can be described thus: competitive VEGF ELISA; panel B.
The target in assay [14] is T2, VEGF165. The assay can be described thus: competitive VEGF ELISA (VEGF binding assay). The procedure: as §1
In assay [15] the target is T1, VEGF165. As to the kind of experiment: VEGF binding assay.

For the molecule “disulfide-linked D2 dimer (D2 domain with HPC4 tag and C-terminal cysteine) (from UniProt P17948 133-226)”, the EC50 with VEGF165 [1] was found to be 11.9 pM; in the assay with VEGF165 [2], 10.9 pM; with VEGF165 [3] it was 4.8 pM; with VEGF165 [4] it was 7.08 pM.
Take “D2-Cys protein (D2 domain of FLT-1 with HPC4 tag and C-terminal cysteine), monomer (from UniProt P17948 133-226)”: the EC50 in the assay with VEGF165 [1] was 172 pM and 254 pM.

B1: Four-arm D2 tetramer linked with 4-arm PEG of 20 kDa (receptor)
chain: RPFVEMYSEIPEIIHMTEGRELVIPCRVTSPNITVTLKKFPLDTLIPDGKRIIWDSRKGFIISNATYKEIGLLTCEATVNGHLYKTNYLTHRQT
modifications: free cysteine coupled to a 4-arm 20 kDa maleimide PEG
Consider B1, for which the Kd was determined as 1500 pM in the assay with VEGF165 [5], 170 pM with VEGF165 [7] and 100 pM with VEGF165 [8]. Further, the EC50 in the assay with VEGF165 [6] stood at 4.78 pM.

B2: D2-Cys protein (D2 domain of FLT-1 with HPC4 tag and C-terminal cysteine), monomer (receptor)
chain: RPFVEMYSEIPEIIHMTEGRELVIPCRVTSPNITVTLKKFPLDTLIPDGKRIIWDSRKGFIISNATYKEIGLLTCEATVNGHLYKTNYLTHRQT
notes: Expressed in HEK293-EBNA cells and purified on an HPC4 antibody column; glycosylated; also called D2 monomer; TCEP-reduced D2 monomer
Consider B2, for which, in the assay with VEGF165 [9], the “fold higher EC50 than sFLT01” value is approximately 35 fold. In addition, the Kd with VEGF165 [5] is 9610 pM; in the assay with VEGF165 [11], approximately 10000 pM; with VEGF165 [7], 28900 pM; in the assay with VEGF165 [8], 11500 pM. In addition, the “percent of the binding affinity of sFLT01” value in the assay with VEGF165 [10] is less than 3%. This molecule also had an EC50 with VEGF165 [12] of 131000 pM.

B3: Four-arm D2 tetramer linked with 4-arm PEG of 10 kDa (receptor)
chain: RPFVEMYSEIPEIIHMTEGRELVIPCRVTSPNITVTLKKFPLDTLIPDGKRIIWDSRKGFIISNATYKEIGLLTCEATVNGHLYKTNYLTHRQT
modifications: free cysteine coupled to a 4-arm 10 kDa PEG
Consider B3, for which the Kd turned out to be 840 pM in the assay with VEGF165 [5], 350 pM with VEGF165 [7] and 140 pM with VEGF165 [8]. In the assay with VEGF165 [6], this molecule registered an EC50 of 3.74 pM.

B4: PEG-linked D2 dimer, 5 kDa linker (receptor)
chain: RPFVEMYSEIPEIIHMTEGRELVIPCRVTSPNITVTLKKFPLDTLIPDGKRIIWDSRKGFIISNATYKEIGLLTCEATVNGHLYKTNYLTHRQT
modifications: free cysteine of partially-reduced monomer coupled to a homobifunctional PEG linker of 5 kDa
B4 came in with a concentration for a half-maximal effect (EC50) with VEGF165 [13] of 6.75 pM.

B5: PEG-linked D2 dimer, 2 kDa linker (receptor)
chain: RPFVEMYSEIPEIIHMTEGRELVIPCRVTSPNITVTLKKFPLDTLIPDGKRIIWDSRKGFIISNATYKEIGLLTCEATVNGHLYKTNYLTHRQT
modifications: free cysteine of partially-reduced monomer coupled to a homobifunctional PEG linker of 2 kDa
Turning to B5, a half-maximal response with VEGF165 [6] (EC50) required 5.79 pM.

B6: PEG-linked D2 dimer, 0.6 kDa linker (receptor)
chain: RPFVEMYSEIPEIIHMTEGRELVIPCRVTSPNITVTLKKFPLDTLIPDGKRIIWDSRKGFIISNATYKEIGLLTCEATVNGHLYKTNYLTHRQT
modifications: free cysteine of partially-reduced monomer coupled to a homobifunctional PEG linker of 0.6 kDa (BM(PEG)3)
As for B6, in the assay with VEGF165 [13], the EC50 came out at 4.71 pM.

B7: disulfide-linked D2 dimer (D2 domain with HPC4 tag and C-terminal cysteine) (receptor)
chain: RPFVEMYSEIPEIIHMTEGRELVIPCRVTSPNITVTLKKFPLDTLIPDGKRIIWDSRKGFIISNATYKEIGLLTCEATVNGHLYKTNYLTHRQT
modifications: disulfide-linked dimer, presumably via the C-terminal cysteine
notes: Two preparations are kept under one id; One formed spontaneously and was SEC-purified from PEGylation reactions or conditioned medium, without copper oxidation ('D2 HPC4 eluate Pk B', 'D2 Pk B'); also called Cu-oxidized dimer; D2 HPC4 eluate Pk B
With B7, the “fold higher EC50 than sFLT01” value with VEGF165 [9] is 2.2 fold; with VEGF165 [14], 2 fold. In addition, the dissociation constant Kd in the assay with VEGF165 [5] came to 1690 pM; in the assay with VEGF165 [7], 11400 pM; with VEGF165 [8] it was 530 pM. The EC50 with VEGF165 [14] is 8 to 10 pM; with VEGF165 [12], 8300 pM.

B8: sFLT01 (D2-9Gly-Fc) (Fc fusion)
chain: RPFVEMYSEIPEIIHMTEGRELVIPCRVTSPNITVTLKKFPLDTLIPDGKRIIWDSRKGFIISNATYKEIGLLTCEATVNGHLYKTNYLTHRQTGGGGGGGGG
Take B8: the EC50 with VEGF165 [15] turned out to be 5.4 pM; in the assay with VEGF165 [13], 4.72 pM; with VEGF165 [6] it was 4.7 pM; with VEGF165 [12], 3700 pM. In addition, the Kd with VEGF165 [5] is 2500 pM; with VEGF165 [7] it was 800 pM; with VEGF165 [8] it was 610 pM.

What is called EC50 is the concentration giving half of the maximal effect. Low readings indicate a more potent agent, high ones a less potent agent. The term Kd denotes the free concentration of one partner at which half of the binding sites on the other are occupied at equilibrium, for simple one-to-one binding. Read a high Kd as lower affinity.
